Test results published in patent US6429014B1, “Monoterpene synthases from grand fir (Abies grandis)” (Washington State University Research Foundation, priority 1997, dated 2002).

Assay: Terpene synthase assay and GC-MS / chiral GC product identification of recombinant enzymes expressed from pSBET in E. coli BL21(DE3) (Example 11)
Format: biochemical
Experimental: For functional expression, bacterial strains E. coli BL21(DE3)/pSAG2(M), E. coli BL21(DE3)/pSAG2(R), E. coli BL21(DE3)/pSAG3(R), E. coli BL21(DE3)/pSAG6(M), E. coli BL21(DE3/pSAG6(R), E. coli BL21(DE3)/pSAG8(M), E. coli BL21(DE3)/pSAG9(M), E. coli BL21(DE3)/pSAG11(M) and E. coli BL21(DE3)/SAG11(R) were grown to A600=0.5 at 37° C. in 5 ml of Luria-Bertani medium (Sambrook, J., Fritsch, E. F., and Maniatis, T. (1989) Molecular Cloning: A Laboratory Manual, 2nd Ed., pp. 7.20-7.43, Cold Spring Harbor, N.Y.) supplemented with 30 μg kanamycin/ml. Cultures were then induced by addition of 1 mM isopropyl-1-thio-β-D-galactopyranoside and grown for another 12 h at 20° C. Cells were harvested by centrifugation and disrupted by sonication followed by centrifugation, and the resulting soluble enzyme preparations were assayed for monoterpene, sesquiterpene and diterpene synthase activity using the appropriate radiolabeled substrate as described previously (Bohlmann, J., Steele, C. L., and Croteau, R. (1997) J. Biol. Chem. 272, 21784-21792). This assay involves the isolation and separation of terpene olefins and oxygenated terpenes by column chromatography on silica, followed by scintillation counting to determine conversion rate. GC-MS analysis is employed for product identification, by comparison of retention times and mass spectra to those of authentic standards (Bohlmann, J., Steele, C. L., and Croteau, R. (1997) J. Biol Chem. 272, 21784-21792); assignment of absolute configuration is based upon chiral column capillary GC and matching of retention time to that of the corresponding enantiomer (Lewinsohn, E., Savage, T. J., Gijzen, M., and Croteau, R. (1993) Phytochem. Anal. 4, 220-225). To insure production of sufficient material for identification, the standard assay (Bohlmann, J., Steele, C. L., and Croteau, R. (1997) J. Biol. Chem. 272, 21784-21792) was scaled up by a factor of 20.
Initially, the four pSBET plasmids pSAG6(M), pSAG8(M), pSAG9(M) and pSAG11(M), containing the full-length cDNA inserts of ag6 (SEQ ID NO:64), ag8 (SEQ ID NO:66), ag9 (SEQ ID NO:77) and ag11 (SEQ ID NO:68), respectively, were expressed in E. coli BL21(DE3). Extracts of the induced, transformed bacterial cells were assayed for monoterpene, sesquiterpene and diterpene synthase activity using the corresponding labeled C10, C15 and C20 prenyl diphosphate substrates (Bohlmann, J., Steele, C. L., and Croteau, R. (1997) J. Biol. Chem. 272, 21784-21792). […] Since it is known that the relatively large amino-terminal transit peptide of plant terpene synthases can impair expression of the functional preprotein in E. coli and promote the formation of intractable inclusion bodies (Williams, D. C., McGarvey, D. J., Katahira, E. J., and Croteau, R. (1998) Biochemisiry 37, 12213-12220), the“pseudomature” forms of ag6 (SEQ ID NO:64) and ag11 (SEQ ID NO:68) were prepared by truncation of the cDNAs to insert a starting methionine immediately upstream of their tandem arginine elements (R59R 60 for ag6 (SEQ ID NO:64), R^71R^72 for ag11 (SEQ ID NO:68)) for expression in E. coli BL21(DE3)/pSAG6(R) and E. coli BL21(DE3)/pSAG11(R). Similar truncations of previously characterized ag2.2 (SEQ ID NO:1) (myrcene synthase, R^64R^65) and ag3.18 (SEQ ID NO:3) ((−)-pinene synthase, (SEQ ID NO:5) R^64R^65) (Bohlmann, J., Steele, C. L., and Croteau, R. (1997) J. Biol. Chem. 272, 21784-21792) were prepared for expression from pSBET as controls for the possible alteration of product yield and distribution resulting from truncation.
Monoterpenes generated at preparative scale from geranyl diphosphate by the recombinant enzymes encoded by ag6 (SEQ ID NO:64), ag8 (SEQ ID NO:66), ag9 (SEQ ID NO:77) and ag11 (SEQ ID NO:68) were analyzed by GC-MS and chiral phase (β-cyclodextrin) capillary GC, and identified by comparison of retention times and mass spectra to authentic standards (FIGS. 6-9). […] The enzyme encoded by ag6 (SEQ ID NO:65) is therefore designated as (−)-1S,4R-camphene synthase. […]

[1] = from geranyl diphosphate, preparative scale

| Molecule | terpene synthase activity on expression from pSBET in E. coli BL21(DE3) (extracts of induced cells) | (−)-1S,5S-α-pinene share of monoterpene products [1] [%] | (−)-1S,5S-β-pinene share of monoterpene products [1] [%] | (−)-4S-limonene share of monoterpene products [1] [%] | terpinolene share of monoterpene products [1] [%] | (−)-1S,4R-camphene share of monoterpene products [1] [%] | prenyl diphosphate substrate yielding terpene olefin products (C10, C15, C20 tested) (truncated forms pSAG6(R), pSAG11(R) in E. coli BL21(DE3)) |
| --- | --- | --- | --- | --- | --- | --- | --- |
| ag9: recombinant terpinolene synthase from Grand fir encoded by clone ag9 (SEQ ID NO:77; protein SEQ ID NO:78) (protein, listed as Abies grandis) MALVSILPLSSKSVLHKSWIVSTYEHKAISRTIPNLGLRGRGKSVTHSLRMSLSTAVSDDHGVQRRIVEFHSNLWDDDFIQSLSTPYGAPSYRERADRLIVEVKGIFTSISAEDGELITPLNDLIQRLLMVDNVERLGIDRHFKNEIKAALDYVYSYWNEKGIGSGSDSGVADLNSTALGFRILRLHGYSVSSDVLEHFKEEKEKGQFVCSAIQTEEEIKSVLNLFRASLIAFPGEKVMEEAEIFSKIYLKEALQNIAVSSLSREIEYVLEDGWQTNMPRLETRNYIDVLGENDRDETLYMNMEKLLEIAKLEFNIFHSLQQRELKDLSRWWKDSGFSHLTFSRHRHVEFYALASCIETDRKHSGFRLGFAKMCHLITVLDDIYDTFGTMEELELFTAAFKRWDPSATDLLPEYMKGLYMVVYETVNEIAREADKSQGRETLNDARRAWEAYLDSYMKEAEWISSGYLPTFEEYMETSKVSFGYRIFALQPILTMDVPLTHHILQEIDFPLRFNDLICSILRLKNDTRCYKADRARGEEASCISCYMKENPGSTEEDAINHINAMVNNLIKEVNWELLRQDGTAHIACKKHAFDILKGSLHGYKYRDGFSVANKETKNWVRRTVLESVPL | Enzymatic production of terpene olefin(s) was observed | 18 | 10 | 11 | 42 | – | – |
| ag6: recombinant (−)-camphene synthase from Grand fir encoded by clone ag6 (SEQ ID NO:64; protein SEQ ID NO:65) (protein, listed as Abies grandis) MALLSITPLVSRSCLSSSHEIKALRRTIPTLGICRPGKSVAHSINMCLTSVASTDSVQRRVGNYHSNLWDDDFIQSLISTPYGAPDYRERADRLIGEVKDIMFNFKSLEDGGNDLLQRLLLVDDVERLGIDRHFKKEIKTALDYVNSYWNEKGIGCGRESVVTDLNSTALGLRTLRLHGYTVSSDVLNVFKDKNGQFSSTANIQIEGEIRGVLNLFRASLVAFPGEKVMDEAETFSTKYLREALQKIPASSILSLEIRDVLEYGWHTNLPRLEARNYMDVFGQHTKNKNAAEKLLELAKLEFNIFHSLQERELKHVSRWWKDSGSPEMTFCRHRHVEYYALASCIAFEPQHSGFRLGFTKMSHLITVLDDMYDVFGTVDELELFTATIKRWDPSAMECLPEYMKGVYMMVYHTVNEMARVAEKAQGRDTLNYARQAWEACFDSYMQEAKWIATGYLPTFEEYLENGKVSSAHRPCALQPILTLDIPFPDHILKEVDFPSKLNDLICIILRLRGDTRCYKADRARGEEASSISCYMKDNPGLTEEDALNHINFMIRDAIRELNWELLKPDNSVPITSKKHAFDISRVWHHGYRYRDGYSFANVETKSLVMRTVIEPVPL | – | 32 | – | 7 | – | 54 | only geranyl diphosphate yielded high levels of terpene olefin products |
